From publication PMC8892257 come the findings set out here.

This assay concerns the target Orai1-GFP (UniProt Q96D31). Kind of assay: FRET or BRET. Background: Bioluminescence resonance energy transfer reports proximity on the nanometre scale.
UniProt Q96D31, sequence (Q96D31 whole entry): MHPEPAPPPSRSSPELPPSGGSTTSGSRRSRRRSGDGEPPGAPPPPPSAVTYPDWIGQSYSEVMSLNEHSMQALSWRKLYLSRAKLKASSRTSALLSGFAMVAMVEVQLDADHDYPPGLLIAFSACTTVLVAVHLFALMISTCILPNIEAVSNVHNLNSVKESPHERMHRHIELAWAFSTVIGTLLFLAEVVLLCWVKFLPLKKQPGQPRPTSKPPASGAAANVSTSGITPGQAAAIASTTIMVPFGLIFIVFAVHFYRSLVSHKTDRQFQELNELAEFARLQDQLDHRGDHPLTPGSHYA

STIM1A-mCherry (natural protein) gave an FRET efficiency (E-FRET) of 0.26.
